{"source": "paper PMC13544220", "about": "“Glycemic and bodyweight effects of GIPR coding variation reflect differences in surface expression and intrinsic functional impairment” (Science Advances, 2026)", "molecules": {"B1": {"name": "E354Q (protein)", "chain": "RAETGSKGQTAGELYQRWERYRRECQETLAAAEPPSGLACNGSFDMYVCWDYAAPNATARASCPWYLPWHHHVAAGFVLRQCGSDGQWGLWRDHTQCENPEKNEAFLDQRLILERLQVMYTVGYSLSLATLLLALLILSLFRRLHCTRNYIHINLFTSFMLRAAAILSRDRLLPRPGPYLGDQALALWNQALAACRTAQIVTQYCVGANYTWLLVEGVYLHSLLVLVGGSEEGHFRYYLLLGWGAPALFVIPWVIVRYLYENTQCWERNEVKAIWWIIRTPILMTILINFLIFIRILGILLSKLRTRQMRCRDYRLRLARSTLTLVPLLGVHQVVFAPVTEEQARGALRFAKLGFEIFLSSFQGFLVSVLYCFINKEVQSEIRRGWHHCRLRRSLGEEQRQLPERAFRALPSGSGPGEVPTSRGLSSGTLPGPGNEASRELESYC"}}, "key": {"[1]": {"tested_on": "wild-type and variant SNAP-GIPR", "assay": "Surface SNAP-GIPR expression (SNAP-tag labelling) in AD293 cells;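 for all read-outs here: scaled to the experimental average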", "assay_type": "cell-based, human", "conditions": "for AD293 Surface: Fig S3E, mean; for Surface SNAP-GIPR expression: sheet Fig 1C", "summary_of_the_method": "(§1)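 Surface GIPR is quantified from wide-field images after labelling intact transfected cells with a membrane-impermeant SNAP probe at 500 nM for 10 min at room temperature. Specific signal, corrected for nontransfected cells, is normalized to the experiment-wide average or to wild-type.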"}, "[2]": {"tested_on": "wild-type and variant SNAP-GIPR", "assay": "Surface SNAP-GIPR expression (SNAP-tag labelling) in INS-1 cells", "assay_type": "cell-based, human", "conditions": "Fig 4G; Mean", "summary_of_the_method": "as §1"}, "[3]": {"tested_on": "wild-type and variant SNAP-GIPR", "assay": "Single-concentration GIP cAMP response by HTRF in INS-1 cells", "assay_type": "cell-based, human", "conditions": "Fig S3E, mean", "description": "All variants were tested in parallel on each occasion to control for transfection efficiency differences between experiments."}, "[4]": {"tested_on": "wild-type and variant SNAP-GIPR in Gipr-/- mouse islets", "assay": "Insulin secretion from Gipr-/- mouse islets transduced with GIPR adenoviruses", "assay_type": "cell-based", "conditions": "Fig 6D, Gipr-/- mouse islets", "description": "(§2) Isolated islets used for insulin secretion assays were treated in 1.5-ml microcentrifuge tubes. Eight-ten islets were used per well with two-three technical replicates per condition. […] At the end of the treatment, supernatants containing the secreted insulin or glucagon were collected, centrifuged at 1000g for 5 min, and transferred to fresh tubes. […] The lysates were sonicated 3× for 10 s in a water bath and centrifuged at 10,000g for 10 min, and the supernatants were collected. The samples were stored at −20°C until the insulin or glucagon concentrations were determined using an Insulin Ultra-Sensitive HTRF Assay kit (62IN2PEG, Revvity) or an HTRF Glucagon Detection Kit (62CGLPEG, Revvity) respectively, according to the manufacturer’s instructions. GraphPad Prism 9.0 was used for the generation of the standard curve and sample concentration extrapolation. The total insulin or glucagon content was calculated by adding the secreted insulin to the insulin content of the lysates, and secretion was reported as the percentage release of total. The percent secretion of islets treated with agonist was normalized to that of islets treated with vehicle and reported as a fold change."}, "[5]": {"tested_on": "wild-type and variant SNAP-GIPR in wild-type mouse islets", "assay": "Insulin secretion from wild-type mouse islets transduced with GIPR adenoviruses", "assay_type": "cell-based", "conditions": "Fig 6F", "description": "as §2, with “The samples were stored at −20°C until the insulin or glucagon concentrations were determined using an Insulin Ultra-Sensitive HTRF Assay kit (62IN2PEG, Revvity) or an HTRF Glucagon Detection Kit (62CGLPEG, Revvity) respectively, according to the manufacturer’s instructions.” left out"}, "[6]": {"tested_on": "wild-type and variant SNAP-GIPR in Gipr-/- mouse islets", "assay": "Glucagon secretion from Gipr-/- mouse islets transduced with GIPR adenoviruses", "assay_type": "cell-based", "conditions": "Fig S6C, Gipr-/- mouse islets", "description": "as §2"}}}
{"molecule": "B1", "values": [{"measurement": "AD293 Surface", "setting": "[1]; column repeated, paired with cAMP 100 nM", "result": 0.7482}, {"measurement": "AD293 Surface", "setting": "[1]; paired with cAMP 100 pM", "result": 0.7482}, {"measurement": "Surface SNAP-GIPR expression", "setting": "[1]; replicate 1", "result": 0.8065}, {"measurement": "Surface SNAP-GIPR expression", "setting": "[1]; replicate 2", "result": 0.9885}, {"measurement": "Surface SNAP-GIPR expression", "setting": "[1]; replicate 3", "result": 0.6105}, {"measurement": "Surface SNAP-GIPR expression", "setting": "[1]; replicate 4", "result": 0.8642}, {"measurement": "Surface SNAP-GIPR expression", "setting": "[1]; replicate 5", "result": 0.9388}, {"measurement": "Surface SNAP-GIPR expression", "setting": "[1]; replicate 6", "result": 0.763}, {"measurement": "Surface SNAP-GIPR expression", "setting": "[1]; replicate 7", "result": 0.751}, {"measurement": "Surface SNAP-GIPR expression", "setting": "[1]; replicate 8", "result": 0.7772}, {"measurement": "Surface SNAP-GIPR expression", "setting": "[1]; replicate 9", "result": 0.3807}, {"measurement": "Surface SNAP-GIPR expression", "setting": "[1]; replicate 10", "result": 0.8583}, {"measurement": "Surface SNAP-GIPR expression", "setting": "[1]; replicate 11", "result": 0.7525}, {"measurement": "Surface SNAP-GIPR expression", "setting": "[1]; replicate 12", "result": 0.8043}, {"measurement": "Surface SNAP-GIPR expression", "setting": "[1]; replicate 13", "result": 1.071}, {"measurement": "Surface SNAP-GIPR expression", "setting": "[1]; replicate 14", "result": 0.6911}, {"measurement": "Surface SNAP-GIPR expression", "setting": "[1]; replicate 15", "result": 0.7162}, {"measurement": "Surface SNAP-GIPR expression", "setting": "[1]; replicate 16", "result": 0.6632}, {"measurement": "Surface SNAP-GIPR expression", "setting": "[1]; replicate 17", "result": 0.6439}, {"measurement": "Surface SNAP-GIPR expression", "setting": "[1]; replicate 18", "result": 0.5804}, {"measurement": "Surface SNAP-GIPR expression", "setting": "[1]; replicate 19", "result": 0.6207}, {"measurement": "Surface SNAP-GIPR expression", "setting": "[1]; replicate 20", "result": 0.742}, {"measurement": "Surface SNAP-GIPR expression", "setting": "[1]; replicate 21", "result": 0.7392}, {"measurement": "Surface SNAP-GIPR expression", "setting": "[1]; replicate 22", "result": 0.5026}, {"measurement": "Surface SNAP-GIPR expression", "setting": "[1]; replicate 23", "result": 0.762}, {"measurement": "Surface SNAP-GIPR expression", "setting": "[1]; replicate 24", "result": 0.7507}, {"measurement": "Surface SNAP-GIPR expression", "setting": "[1]; replicate 25", "result": 0.8473}, {"measurement": "Surface SNAP-GIPR expression", "setting": "[1]; replicate 26", "result": 0.7374}, {"measurement": "Surface SNAP-GIPR expression", "setting": "[1]; replicate 27", "result": 0.7405}, {"measurement": "Surface SNAP-GIPR expression", "setting": "[1]; replicate 28", "result": 0.7355}, {"measurement": "Surface SNAP-GIPR expression", "setting": "[1]; replicate 29", "result": 0.6896}, {"measurement": "Surface SNAP-GIPR expression", "setting": "[1]; replicate 30", "result": 1.162}, {"measurement": "Surface SNAP-GIPR expression", "setting": "[1]; replicate 31", "result": 0.7254}, {"measurement": "Surface SNAP-GIPR expression", "setting": "[1]; replicate 32", "result": 0.7792}, {"measurement": "Surface SNAP-GIPR expression", "setting": "[1]; replicate 33", "result": 0.8108}, {"measurement": "Surface SNAP-GIPR expression", "setting": "[1]; replicate 34", "result": 0.9519}, {"measurement": "Surface SNAP-GIPR expression", "setting": "[1]; replicate 35", "result": 0.6078}, {"measurement": "Surface SNAP-GIPR expression", "setting": "[1]; replicate 36", "result": 0.6218}, {"measurement": "Surface SNAP-GIPR expression", "setting": "[1]; replicate 37", "result": 0.8918}, {"measurement": "Surface SNAP-GIPR expression", "setting": "[1]; replicate 38", "result": 0.4883}, {"measurement": "Surface SNAP-GIPR expression", "setting": "[1]; replicate 39", "result": 0.768}, {"measurement": "Surface SNAP-GIPR expression", "setting": "[1]; replicate 40", "result": 0.6348}, {"measurement": "Surface SNAP-GIPR expression", "setting": "[1]; replicate 41", "result": 0.707}, {"measurement": "Surface expression", "setting": "[2]", "result": 0.7154}, {"measurement": "INS-1 cAMP (100 nM)", "setting": "[3]", "result": 1.46}, {"measurement": "Insulin secretion, ratio G11 + GIP / G11", "setting": "[4]; replicate 1", "result": 1.276}, {"measurement": "Insulin secretion, ratio G11 + GIP / G11", "setting": "[4]; replicate 2", "result": 0.2979}, {"measurement": "Insulin secretion, ratio G11 + GIP / G11", "setting": "[4]; replicate 3", "result": 1.231}, {"measurement": "Insulin secretion, ratio G11 + GIP / G11", "setting": "[4]; replicate 4", "result": 1.587}, {"measurement": "Insulin secretion, ratio G11 + GIP / G11", "setting": "[5]; replicate 1", "result": 0.7071}, {"measurement": "Insulin secretion, ratio G11 + GIP / G11", "setting": "[5]; replicate 2", "result": 0.9219}, {"measurement": "Insulin secretion, ratio G11 + GIP / G11", "setting": "[5]; replicate 3", "result": 0.7382}, {"measurement": "Insulin secretion, ratio G11 + GIP / G11", "setting": "[5]; replicate 4", "result": 0.5337}, {"measurement": "Insulin secretion, ratio G11 + GIP / G11", "setting": "[5]; replicate 5", "result": 0.4605}, {"measurement": "Glucagon secretion, ratio G0.5 + GIP / G0.5", "setting": "[6]; replicate 1", "result": 0.6783}, {"measurement": "Glucagon secretion, ratio G0.5 + GIP / G0.5", "setting": "[6]; replicate 2", "result": 1.215}, {"measurement": "Glucagon secretion, ratio G0.5 + GIP / G0.5", "setting": "[6]; replicate 4", "result": 1.495}]}
